Source: paper PMC6849719, “Characterization of the first naturally thermostable terpene synthases and development of strategies to improve thermostability in this family of enzymes” (The Febs Journal, 2017)

Key:
[1] = tested on: T1, CC(C)=CCC/C(C)=C/CC/C(C)=C/CO[P@@](=O)(O)OP(=O)(O)O; experiment: purified protein; assay type: biochemical, Roseiflexus sp. RS-1; conditions: 65 °C, 10 mM MgCl2, TS buffer (MES/Tris/CAPS, 100 mM NaCl), 1 μM enzyme, FPP 1.2-92 μM, commercial ammonium salt
T1 construct: full length (326 residues), N-terminal His6 tag (pET28a, NheI-EcoRI), codon-optimised gene, E. coli BL21(DE3); ~40 kDa

[2] = substrate: CC(C)=CCC/C(C)=C/CC/C(C)=C/CO[P@@](=O)(O)OP(=O)(O)O; experiment: purified protein; assay type: biochemical, Roseiflexus castenholzii; conditions: 65 °C, 10 mM MgCl2, TS buffer (MES/Tris/CAPS, 100 mM NaCl), 1 μM enzyme, FPP 1.2-92 μM, commercial ammonium salt

RoseRS_3509 (Roseiflexus sp. RS-1)
Km [1]: 87 ± 31 µM
kcat [1]: 0.95 ± 0.29 s⁻¹

B1: Rcas_0622 (Roseiflexus castenholzii DSM 13941) (protein)
chain: MDQDYRARLVYPFSGAISPHADIVDQATLAWAAMFGLLTDSLRHKSRRLQYGLLAARAYPRADREMLQIAADWIAWLFFMDDQCDETGIGRDLQRMIALHERFLAILDGATPEAHDCALTYALADLRRRLALRAPDNWLRRFSEHVRLYFTANRWETVNRQRGATPNVATYCAARLFSGAVYACFDLIELAEQIELPFYARHHSIVQQLEQAANNIICWCNDVLSYPKEMQHGDRHNLVLVIQGEHQCSLPEAIDRALDLHAREVATFVRKRTCVPYFDAAVNTALEKYVTGLQFWICANRDWSLTATRYAPTHKSQEMVMAVAQQ
notes: full length, N-terminal His6 tag (pET28a, NheI-EcoRI), codon-optimised gene, E. coli BL21(DE3); ~40 kDa
Km [2]: 5.9 ± 2.0 µM
kcat [2]: 0.09 ± 0.008 s⁻¹
